In patent publication US20170363644:

Molecular target: Aβ42 oligomers, P05067

B1: factor XII (FXII) (protein)
chain: IPPWEAPKEHKYKAEEHTVVLTVTGEPCHFPFQYHRQLYHKCTHKGRPGPQPWCATTPNFDQDQRWGYCLEPKKVKDHCSKHSPCQKGGTCVNMPSGPHCLCPQHLTGNHCQKEKCFEPQLLRFFHKNEIWYRTEQAAVARCQCKGPDAHCQRLASQACRTNPCLHGGRCLEVEGHRLCHCPVGYTGAFCDVDTKASCYDGRGLSYRGLARTTLSGAPCQPWASEATYRNVTAEQARNWGLGGHAFCRNPDNDIRPWCFVLNRDRLSWEYCDLAQCQTPTQAAPPTPVSPRLHVPLMPAQPAPPKPQPTTRTPPQSQTPGALPAKREQPPSLTRNGPLSCGQRLRKSLSSMTRVVGGLVALRGAHPYIAALYWGHSFCAGSLIAPCWVLTAAHCLQDRPAPEDLTVVLGQERRNHSCEPCQTLAVRSYRLHEAFSPVSYQHDLALLRLQEDADGSCALLSPYVQPVCLPSGAARPSETTLCQVAGWGHQFEGAEEYASFLQEAQVPFLSLERCSAPDVHGSSILPGMLCAGFLEGGTDACQGDSGGPLVCEDQAAERRLTLQGIISWGSGCGDRNKPGVYTDVAYYLAWIREHTVS
For B1, the “FXII autoactivation, chromogenic substrate assay with purified FXII” value was “Aβ42 oligomers can directly induce FXII autoactivation” and the “FXII cleavage in human plasma (Western blot: FXII zymogen and FXIIa heavy chain)” value was “plasma incubated with Aβ42 had decreased FXII zymogen and increased FXIIa heavy chain compared to incubation with vehicle”.
